Measurements as given in publication PMC3033224 (Nature chemical biology, 2010).
Positions of bridges follow the written chain, without caps; N, C: chain ends. Non-standard residues stand in square brackets, D forms with d. No end group written: not given here. *: point of attachment. FITC = O=C1OC2(c3ccc(O)cc3Oc3cc(O)ccc32)c2ccc(NC(=S)*)cc21; S5 = C=CCCC[C@](C)(N)C(=O)O; Nle = CCCC[C@H](N)C(=O)O; βAla = NCCC(=O)O

Biological target: recombinant human MCL-1ΔNΔC (amino acids 172–320) (human, UniProt Q07820 172-320)
Sequence (Q07820 172-320, stated change not applied): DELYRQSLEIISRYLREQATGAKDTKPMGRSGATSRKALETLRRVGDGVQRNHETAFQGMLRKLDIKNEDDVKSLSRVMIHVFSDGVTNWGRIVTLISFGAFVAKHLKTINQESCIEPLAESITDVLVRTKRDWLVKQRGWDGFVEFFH
Assay: fluorescence polarisation

Binder | Kd
{FITC-βAla}-QWAREIGAQLR[S5][Nle]AD[S5]LNAQY (staple 12-16) [FITC-PUMA SAHBA] | ≤ 50 nM
{FITC-βAla}-DIIRNIARHLA[S5]VGD[S5][Nle]DRSI (staple 12-16) [FITC-BID SAHBA] | ≤ 50 nM
